Measurements published in the supplement of paper PMC9170038.

Test system: K4 kissing-loop RNA reporter
Test: apparent KD of K4 kissing-loop reporter; higher = weaker reporter binding
Conditions: Eterna round: R107
Method: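 RNA-MaP round R107: designed RNA switches with theophylline, tryptophan, arginine or FMN aptamers are transcribed on-chip within common flanks. They are titrated with a labelled K4 kissing-loop RNA reporter in RNA-MaP buffer (100 mM Tris pH 7.5, 80 mM KCl, 4 mM MgCl2), without ligand or with the indicated ligand. Median apparent KD per design.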

[1] = input ligand: theophylline 20 uM
[2] = input ligand: tryptophan 2.4 mM
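Also: bound reporter read as fluorescence of individual clusters on recovered sequencing chips by microscopy, with normalized cluster intensities fitted with a binding model.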

Sequence: GCUGCCAUGGCAGGAUAUAUAAAUGCUGAGUGAUGUUCUGCAUCAUAUGUCCCUGACCGCGGCGGUGUAGAAGGGCCAUGGCAGC
- apparent KD of K4 kissing-loop reporter (input ligand: FMN 200 uM): 135 nM
- apparent KD of K4 kissing-loop reporter (input ligand: arginine 13.2 mM): 93 nM
- apparent KD of K4 kissing-loop reporter (input ligand: none): 107 nM
- apparent KD of K4 kissing-loop reporter [1]: 97.1 nM
- apparent KD of K4 kissing-loop reporter [2]: 103 nM

Sequence: GGAAUGCUGUAAGGAUAUCUCGGACGGUUACUCCGUUUCUCGCGUGUAAGAAUCUGAGUGAUGUUUAGAGAAGGUACGCUGGUUA [theeternabot_exclusion_KL_FMN_B_21]
- apparent KD of K4 kissing-loop reporter (input ligand: FMN 200 uM): 178 nM
- apparent KD of K4 kissing-loop reporter (input ligand: arginine 13.2 mM): 233 nM
- apparent KD of K4 kissing-loop reporter (input ligand: none): 240 nM
- apparent KD of K4 kissing-loop reporter [1]: 225 nM
- apparent KD of K4 kissing-loop reporter [2]: 149 nM

Sequence: AAGCCAUACUCGGCCGCCACUUACUUCGUUGCAGUGAUGUUGCACACGAAUCCGUCAUAGCAAAUAAGGACCGGGAGAUAUACCG [theeternabot_exclusion_KL_Trp_B_19]
- apparent KD of K4 kissing-loop reporter (input ligand: FMN 200 uM): 89.3 nM
- apparent KD of K4 kissing-loop reporter (input ligand: arginine 13.2 mM): 89.3 nM
- apparent KD of K4 kissing-loop reporter (input ligand: none): 95.1 nM
- apparent KD of K4 kissing-loop reporter [1]: 87.5 nM
- apparent KD of K4 kissing-loop reporter [2]: 86.3 nM

Sequence: CGCGCGCGCGCGCGCGCGCGCGCGCGAAGUGAGGAUAUUUAGGGAGAAAGAAGGCACUAUAAAAUAUAGUGAUGUUAUAUAAGGG [SSFMNA.B]
- apparent KD of K4 kissing-loop reporter (input ligand: FMN 200 uM): 920 nM
- apparent KD of K4 kissing-loop reporter (input ligand: arginine 13.2 mM): 499 nM
- apparent KD of K4 kissing-loop reporter (input ligand: none): 720 nM
- apparent KD of K4 kissing-loop reporter [1]: 203 nM
- apparent KD of K4 kissing-loop reporter [2]: 496 nM

Sequence: CUUGAGACAUGAGUGAUGUUCAUGUCCGAAGGAGCGUGCGAAAGCACAGGUAGGUCGCGGACGUGAGUGAUGUUCAUGUGAGCGA [KL-XArg-A10 #analogue]
- apparent KD of K4 kissing-loop reporter (input ligand: FMN 200 uM): 236 nM
- apparent KD of K4 kissing-loop reporter (input ligand: arginine 13.2 mM): 163 nM
- apparent KD of K4 kissing-loop reporter (input ligand: none): 202 nM
- apparent KD of K4 kissing-loop reporter [1]: 223 nM
- apparent KD of K4 kissing-loop reporter [2]: 201 nM

Sequence: UGGUUUAGAAGUGAUGUUUCGAUAAGUGAUACCAGACAAAAGAAAGUCCCUUGGCAGCACAAUGAUGCCAAGGAAACGGCAUGAU [Same State Theophylline A GF 1]
- apparent KD of K4 kissing-loop reporter (input ligand: FMN 200 uM): 118 nM
- apparent KD of K4 kissing-loop reporter (input ligand: arginine 13.2 mM): 146 nM
- apparent KD of K4 kissing-loop reporter (input ligand: none): 115 nM
- apparent KD of K4 kissing-loop reporter [1]: 127 nM
- apparent KD of K4 kissing-loop reporter [2]: 98.9 nM

Sequence: AUUUUGGUUGAGAGUGAUGUUCCUUGUGUUCGAGGACCGGUACGGCCGCCACUCGGGUAGAAAAUAAAAGAAAUGUUUGAUUUUU [BDazzled - #11 SS Tryptophan A]
- apparent KD of K4 kissing-loop reporter (input ligand: FMN 200 uM): 242 nM
- apparent KD of K4 kissing-loop reporter (input ligand: arginine 13.2 mM): 86.1 nM
- apparent KD of K4 kissing-loop reporter (input ligand: none): 157 nM
- apparent KD of K4 kissing-loop reporter [1]: 143 nM
- apparent KD of K4 kissing-loop reporter [2]: 215 nM

Sequence: AGUACAAUUGCGGCCGCCACUCAACGCAGAUCAAAGAUCUGCAUUCACUCAGUGAUGUUGAGUGAGAGGACCGGGCAUUUGUACA [Omei KL Tryp B SS B v2]
- apparent KD of K4 kissing-loop reporter (input ligand: FMN 200 uM): 676 nM
- apparent KD of K4 kissing-loop reporter (input ligand: arginine 13.2 mM): 481 nM
- apparent KD of K4 kissing-loop reporter (input ligand: none): 548 nM
- apparent KD of K4 kissing-loop reporter [1]: 512 nM
- apparent KD of K4 kissing-loop reporter [2]: 164 nM

Sequence: CGGAUCGCAUCAGGAUAUCUCUCAUCAGUGAUGUUGGUGAAGCGUACGCGAAAGCGUACGCAGAUGAGAGAAGGGAUGCGAUCCG
- apparent KD of K4 kissing-loop reporter (input ligand: FMN 200 uM): 467 nM
- apparent KD of K4 kissing-loop reporter (input ligand: arginine 13.2 mM): 763 nM
- apparent KD of K4 kissing-loop reporter (input ligand: none): 1670 nM
- apparent KD of K4 kissing-loop reporter [1]: 766 nM
- apparent KD of K4 kissing-loop reporter [2]: 945 nM

Sequence: GGCGUCUAAAAGUGCCUAGAGAGAAAGGAUACCAGCACCCGGCGGUGCCCUUGGCAGCCUAGCCCAGUGAUGUUGGGUCCUCUAA [Lasorian]
- apparent KD of K4 kissing-loop reporter (input ligand: FMN 200 uM): 380 nM
- apparent KD of K4 kissing-loop reporter (input ligand: arginine 13.2 mM): 159 nM
- apparent KD of K4 kissing-loop reporter (input ligand: none): 312 nM
- apparent KD of K4 kissing-loop reporter [1]: 336 nM
- apparent KD of K4 kissing-loop reporter [2]: 286 nM

Sequence: GCUAUGGUAGGAAGGAGCGCUUACUCAUUAAUAAGAGUGAUGUUCGAUAAUGAGUAUUUAUAGCAGGUAGGUCGCCUACUAUAGC [Arginine B K4 3]
- apparent KD of K4 kissing-loop reporter (input ligand: FMN 200 uM): 280 nM
- apparent KD of K4 kissing-loop reporter (input ligand: arginine 13.2 mM): 221 nM
- apparent KD of K4 kissing-loop reporter (input ligand: none): 270 nM
- apparent KD of K4 kissing-loop reporter [1]: 247 nM
- apparent KD of K4 kissing-loop reporter [2]: 237 nM

Sequence: GGAUAGGACUGAGGAUAUGGGCUAGGCAAGAAUAACUUGUCUAGCAAAUCCAUGAGGAGUGAUGUUCCAGAAGGCAGUCCUAUCG [FmnBX 1 U10+A76]
- apparent KD of K4 kissing-loop reporter (input ligand: FMN 200 uM): 732 nM
- apparent KD of K4 kissing-loop reporter (input ligand: arginine 13.2 mM): 135 nM
- apparent KD of K4 kissing-loop reporter (input ligand: none): 170 nM
- apparent KD of K4 kissing-loop reporter [1]: 167 nM
- apparent KD of K4 kissing-loop reporter [2]: 113 nM

Sequence: CCAGGAUGAUGAGGAUGAUAAAUUACUGAAGGAGCGCAUAUAGUUGCAGGUAGGUCGCGGUGAAUAAGUAUAGUGAUGUUAUACC [SSArgA.Aa]
- apparent KD of K4 kissing-loop reporter (input ligand: FMN 200 uM): 379 nM
- apparent KD of K4 kissing-loop reporter (input ligand: arginine 13.2 mM): 263 nM
- apparent KD of K4 kissing-loop reporter (input ligand: none): 309 nM
- apparent KD of K4 kissing-loop reporter [1]: 360 nM
- apparent KD of K4 kissing-loop reporter [2]: 301 nM

Sequence: UCCUAGGCUCGAAAGAGCCUAGGAUAUACUCAGGAUAUCCGGAAACGGAGAAGGGAGUAACUAGUGAUGUUAGGGAUUCCCUAUU
- apparent KD of K4 kissing-loop reporter (input ligand: FMN 200 uM): 260 nM
- apparent KD of K4 kissing-loop reporter (input ligand: arginine 13.2 mM): 96 nM
- apparent KD of K4 kissing-loop reporter (input ligand: none): 109 nM
- apparent KD of K4 kissing-loop reporter [1]: 98.7 nM
- apparent KD of K4 kissing-loop reporter [2]: 96.5 nM

Sequence: UAAGAAUAAGUAGCAGUGAUGUUGCUACUACGAGGACCGGUACGGCCGCCACUCGAGCCGUACCAUAACAUCACUGAGGUACGAA [(H1)-(H2)-(Trp1)-(Trp2)-(T)'-(H)'-(T)'']
- apparent KD of K4 kissing-loop reporter (input ligand: FMN 200 uM): 231 nM
- apparent KD of K4 kissing-loop reporter (input ligand: arginine 13.2 mM): 175 nM
- apparent KD of K4 kissing-loop reporter (input ligand: none): 264 nM
- apparent KD of K4 kissing-loop reporter [1]: 292 nM
- apparent KD of K4 kissing-loop reporter [2]: 272 nM

Sequence: AGAAAAGGGACGAUCGUCGAGUUGCCAGAAGGAGCGGUAAUUUUACCAGGUAGGUCGCUGGCCCAGUGAUGUUGGGCUUUUAAGA [Biisinaor]
- apparent KD of K4 kissing-loop reporter (input ligand: FMN 200 uM): 105 nM
- apparent KD of K4 kissing-loop reporter (input ligand: arginine 13.2 mM): 96.5 nM
- apparent KD of K4 kissing-loop reporter (input ligand: none): 125 nM
- apparent KD of K4 kissing-loop reporter [1]: 133 nM
- apparent KD of K4 kissing-loop reporter [2]: 92.4 nM

Sequence: GGGCAUCAGGCUGAUACCAGUGAUAAAGGAUAAGAGACAGGGAGUGAUGUUCCCUUUACCCACCCUUGGCAGCAGUUUAAGUUUG [Exclusion Theophylline B GF 16]
- apparent KD of K4 kissing-loop reporter (input ligand: FMN 200 uM): 92.8 nM
- apparent KD of K4 kissing-loop reporter (input ligand: arginine 13.2 mM): 94.9 nM
- apparent KD of K4 kissing-loop reporter (input ligand: none): 111 nM
- apparent KD of K4 kissing-loop reporter [1]: 94.3 nM
- apparent KD of K4 kissing-loop reporter [2]: 87.1 nM

Sequence: UUUUUUUACUGAAGGAGCGGCAAUUGAUACGUAGAUAUAGUGAUGUUAUAUAAGAUAGAGAGCCAGGUAGGUCGCAGAUUUUUUC [ExArgB.X]
- apparent KD of K4 kissing-loop reporter (input ligand: FMN 200 uM): 194 nM
- apparent KD of K4 kissing-loop reporter (input ligand: arginine 13.2 mM): 160 nM
- apparent KD of K4 kissing-loop reporter (input ligand: none): 172 nM
- apparent KD of K4 kissing-loop reporter [1]: 143 nM
- apparent KD of K4 kissing-loop reporter [2]: 129 nM

Sequence: AAGUCAUAUAGAAGGAGCGUGUUUUUUAAUUUGUUUUCAUGAUCGAGUGAUGUUCGAUAUACACAGGUAGGUCGCUGUAUAAUAA [hbob_SS_Arginine_B_2t142]
- apparent KD of K4 kissing-loop reporter (input ligand: FMN 200 uM): 119 nM
- apparent KD of K4 kissing-loop reporter (input ligand: arginine 13.2 mM): 141 nM
- apparent KD of K4 kissing-loop reporter (input ligand: none): 131 nM
- apparent KD of K4 kissing-loop reporter [1]: 127 nM
- apparent KD of K4 kissing-loop reporter [2]: 106 nM

Sequence: CCGGGCGGCUGAAGGAGCGGGCGGGCCCGAGUGAUGUUCGGGUGGGCCGUGAGGCCCGGAGCCCAGGUAGGUCGCGGUUCCGUCC [#2 Same State - Arginine B Attempt #18 (HarryS)]
- apparent KD of K4 kissing-loop reporter (input ligand: FMN 200 uM): 201 nM
- apparent KD of K4 kissing-loop reporter (input ligand: arginine 13.2 mM): 139 nM
- apparent KD of K4 kissing-loop reporter (input ligand: none): 167 nM
- apparent KD of K4 kissing-loop reporter [1]: 196 nM
- apparent KD of K4 kissing-loop reporter [2]: 140 nM

Sequence: GUGGCGGGCCAAGGAUAUAUUUUGGAGUGAUGUUGUUCAUUUAUUUGAGCUAGUGAUGUUGGUCGAAUAGAAGGUGGCCCGCCAC [whbob_Ex_FMNB__2th220]
- apparent KD of K4 kissing-loop reporter (input ligand: FMN 200 uM): 69.9 nM
- apparent KD of K4 kissing-loop reporter (input ligand: arginine 13.2 mM): 27.2 nM
- apparent KD of K4 kissing-loop reporter (input ligand: none): 52.8 nM
- apparent KD of K4 kissing-loop reporter [1]: 44.7 nM
- apparent KD of K4 kissing-loop reporter [2]: 45.8 nM
